{
  "source": "paper PMC5464768",
  "about": "“ER retention is imposed by COPII protein sorting and attenuated by 4-phenylbutyrate” (eLife, 2017)",
  "binders": {"B1": {"name": "Sec24a (△1–340) (domain or fragment)", "chain": "LSLQPEGLRVVNLLQERNMLPSTPLKPPVPNLHEDIQKLNCNPELFRCTLTSIPQTQALLNKAKLPLGLLLHPFKDLVQLPVVTSSTIVRCRSCRTYINPFVSFLDQRRWKCNLCYRVNDVPEEFLYNPLTRVYGEPHRRPEVQNATIEFMAPSEYMLRPPQPPVYLFVFDVSHNAVETGYLNSVCQSLLDNLDLLPGNTRTKIGFITFDSTIHFYGLQESLSQPQMLIVSDIEDVFIPMPENLLVNLNESKELVQDLLKTLPQMFTKTLETQSALGPALQAAFKLMSPTGGRMSVFQTQLPTLGVGALKPREEPNHRSSAKDIHMTPSTDFYKKLALDCSGQQVAVDLFLLSGQYSDLASLGCISRYSAGSVYYYPSYHHQHNPVQVQKLQKELQRYLTRKIGFEAVMRIRCTKGLSIHTFHGNFFVRSTDLLSLPNVNPDAGYAVQMSVEESLTDTQLVSFQSALLYTSSKGERRIRVHTLCLPVVSTLNDVFLGADVQAISGLLANMAVDRSMTASLSDARDALVNAVIDSLSAYRSSVLSNQQPGLMVPFSLRLFPLFVLALLKQKSFQTGTNARLDERIFAMCQVKNQPLVYLMLTTHPSLYRVDNLSDEGALNISDRTIPQPPILQLSVEKLSRDGAFLMDAGSVLMLWVGKNCTQNFLSQVLGVQNYASIPQPMTDLPELDTPESARIIAFISWLREQRPFFPILYVIRDESPMKANFLQNMIEDRTESALSYYEFLLHIQQQVNK", "notes": "Sec24a, H. sapiens, lacking residues 1–340 (△1–340); Purified alone for fluorescence polarization and as the complex with Sec23a for crystallography; also called human Sec24a; source: High Five insect cells (baculovirus), purified (HisTrap HP, HiTrap Q, Superdex 200); not shown: His6, N-terminal, cleaved"}},
  "biological_target": "T1, 5-Fam-[…] (vesicular stomatitis virus)",
  "T1 construct": "also called fluorescent tracer peptide; fluorescent probe",
  "assay": "fluorescence polarisation",
  "conditions": "both partners purified",
  "data": [
    {"binder": "B1", "values": [
      {"measurement": "Kd", "result": 14.2, "unit": "µM"}
    ]}
  ]
}
